Laboratory results taken from the DeepSol protein solubility set.

Assay: soluble on expression in E. coli; label from the status in PepcDB or PDB records

| Sequence | soluble on expression in E. coli |
| --- | --- |
| MSLIARDAHEGQFRSSGEPYITHPVAVASIIAQLHLDHEAVMAALLHDVIEDTPYTEEQLKEEFGASVAEIVDGVSKLDKLKFRTRQEAQVENFRKMILAMTRDIRVVLIKLADRTHNMRTLGSLRPDKRRRIAKETLEIYCPLAHRLGIEHIKNELEDLSFQAMHPHRYEVLKKLVDVARSNRQDLIERISQEIKVRLENSGIFARVWGREKHLYKIYQKMRIKDQEFHSIMDIYAFRVIVKNVDDCYRVLGQMHNLYKPRPGRVKDYIAVPKANGYQSLQTSMIGPKGVPVEVHIHTEDMEQVAEMGITAHWVYKENGKNDSTTAQIRVQRWLQSLVEIQQSVGNSFEFIENVKSEFFPKEIYVFTPKGRIVELPMGATAVDFAYAVHSDVGNTCVGVTVEHKPYPLSKALESGQTVNIITDPNAHPEVAWLNFVVTARAKTRIRHYLKQRCEEDAVKLGEVELNVALQPHNLGDFSIQQIRTVLDALALSSLDELLREIGLGNQSASMIAHQFVGVPLESANTKNLEFESKILTIAPMQVGKTQFAQCCHPILGDPIVGCCTEKNTVVVHHQHCASLKNACRQSLAKWDNVQSAVNFEAELQIEILNEQNALLSLMTAISASESSLQNIWTEELENNLLLVILQVCVKDIKHLANIVHRIKGITGVVNVKRNINELEGHHHHHH | not soluble |
| MSLIDIHSHIIPNIDDGSKSLEMSLEMLKRAEESGTKKIIATPHFFKGYWTENYNSVKDKVKELNKLAKENNLNIEIYPGQEVFFNNYILEDFKLGDIGTLGESRYMLIEFPMDKIYFQKAIDEIYELKIKGITPVIAHPERYVDFINNPEEINQFIDEGYLFQLNGGSLTGLFGKEVKKTAELFLENNLYSFIGSDAHSNGNRNTSLKEACEVANSISRGASRRFEANGLALLNNEKIVFQGEGHHHHHH | soluble |
| MSLIEDCLRSYRFIAIDTEFPSTLRETTQHATDEERYMDMSFSVDRAKLIQLGLTLFDINGRIGGTWEINFSDFGVDDARNEKSIEFLRRNGLDLRKIREEGIRIEGFFSEMFWMLKKTRRNITWVTFHGSYDIAYLLKGFTGEALPVTSERFSKAVARVLGSVYDLKVMAGRCEGLSSRLGLETLAHEFGLNRVGTAHHAGSNNELTAMVFAKVLSPFPLFLRFGSLELRTIESEAIV | soluble |
| MSLIEEEVLKIIKPTEEDKKGIEKVLEIIRERLNKLDFEVEGSFRKGTWLRQDTDIDVFVFYPKDVGKEYLERNALNDIINRIKDLDYTLAYAEHPYVIVNINNVEVDIVPALRVESGDKAITAVDRTPFHTKYVTSHLDERGKDEVRLLKRFMKGIGVYGAELKVQGFSGYATELLIIYYGNFRKVLEEASKWKHPIKIELTKPMKIFSEPLIIPDPVDPKRNVTAAVSLKNIATFSIAAKYYLKNPSIEFFFPSKKVEEKVKGDVLILRLNLDEKSSEDIVWGQIKRSVNKIERALKQYGFRVIDVQAWGDTNNITIAVQLESKNIGQYYLNIGPQYYSGTIEDFIQKNDNIWVGEDGRLYSIKERKEYDAETIAKKNIVLKVKYNIESYWLQNTEDQQIMKFLRKTPTWLKEGHHHHHH | not soluble |
| MSLIEELFDQMSKGNLLLIDMTYDMFNGMQTYIGDPPFKHEYFRKGNKYGEVTLSTVYMGLHSGTHIDLPLHFVPNGESVEKFNIIQFIGYGNVLDLSYKKLGEPISSNDLKKFDDRIKENYVVMLYTGFSATRGKEDFLYNWPYLDSNGADYLVSKKIRAVGIESMSIAGWAGKEYPPRTNWDEVVYVHHKLLSNDIIILESVNNMKKVLEECKNGEALFFYAPLKIVGAEGGPTRLFAICEKREGHHHHHH | not soluble |
| MSLIKLFLLKLYWAHFSTKQIHQFLMAYPNVIKEEGRKKDSYLCEWVNREENVHLLRKYYAFIKLDHNDIIKELQKLKVSYITYMDSEYPVLLKEIYQFPLLLFYKGNIKLINNMHHLAVVGARDSTSYTQQSLEFLLSNDKSKYLTIVSGLAQGADAMAHQIALKYNLPTIAVLAFGHQTHYPKSTLALRNKIEEKGLVISEYPPHTPIAKYRFPERNRIISGLSKGVLITEAKEQSGSHITIDFALEQNRNVYVLPGSMFNPMTKGNLLRIQEGAKVVLNANDIFEDYYIEGHHHHHH | soluble |
| MSLIKMIALDLDETLLNTDKTISEENATALRQLHEAGIKIVLCTGRPINAIWHYLEQLGLTTDDDYTITFNGALVIQNSTKEALAQSGLSRNDFEPLHAFAAANHYPMDVLDFDQVYPIADLTPSVYEQMLKAPMKFIPTAFADLPDQLFSKAVMATDAAILDQVVAKLTPELTKLYHVVRSQPKILEFLAADMDKAVGLGQLLTHFGWDFSDLMAFGDAENDLGMIKAAGDGVAMQNGQPAVKAAANHQTPVDNNHAGVAAYLQHVFPELLGEGHHHHHH | soluble |
| MSLIKVLIVEDDPMVAMLNAHYLEQVGGFELVQAVNSVKSAIEVLEESRIDLVLLDIFMPEETGFELLMYIRNQEKEIDIMMISAVHDMGSIKKALQYGVVDYLIKPFTFERFKEALTIYREKLTFMKEQQKISQSELDSLILQKEKREPTVTKELPKGLTKQTLQLIWQKIELLNGRAFTTDEMSQLVGISRVSIRKYVMFLTDIGVLENEMMYQHVGRPVSKLRCVDQKKIEFYVEGHHHHHH | soluble |
| MSLILPPIIAASLPPPPGPHAVGYTFLVHPPLSPFSHSSPTLKSTGKPAFQIEEIGYCLFYPGLPEGKRGKEWVSWVPDPFWGVIRGYERFLGGKGGVSWLVKPLGYIAGRLQMPLHPRAPLKPTDKPYPLLIFSHGLAGTRHTYSQYCAALASEGYVVLAVEHRDGSGPAVVLPPEGESKESRVLYYTGVNDISWAEGEEHPVTHARTLQLDIRTREVYEAYHSFKRLLSHEGDLSIKIEGLEGGHSFGGGTILHLLQSPPPSTLLPSLPAKQAISLDPWLEPLPAPSDILQTPLPSSLPPTLVINSAGFTEWPEHWEKLVEIMKGKGILITMIGIGHQAFSDFPLLSPRGYSHAHSMILKVHELSTAFLNKKLLSGAALAGKTPDKGDYEKDEDGVKIKGKAAMKDGDVLLHFADREEGHHHHHH | soluble |
| MSLILTLDPQVAGASGDMVLGALIAVGADPNRLEEVVHEVSSLGHEVDVHVHEIQKRGIRAVRVEVDAEGDLRDPDELREAVKTVAENVLEDRWRELPELALKYLLRAEERVHGDLCHLHELGSSDTVVDLVGTAALLEDLNPKASEVLPPNVGSGTVETEHGRLPVPAPAVVEVLSEWDVGIVREGEGELLTPTGAALLRTIDELLPDPPPPYRVKRQGFGAGTKDLPDRPNVLRALICEPGGSGEHVRIVETSVDDVDGEAVGELIEAVLQLEGVHDVEVLHGFGKKGRPRFVIRVVTEDRPGIEREVFRELFRWTGTLGARVYRCTRVTADRRIVDVDGIRVKVSRFEDVHHAKPEWEDVRRKVDRESAPLTRARLVGDLRKRYEGDGEDGAGDEGHHHHHH | soluble |
| MSLINAGITTVGEFHYVHHSEQKFDLDQLVIQAAIDAGIRIVLLQTLYERAGFDSPAVHPVQERFIASYEDFIGNLEKLRKEKTHERVQIGVAAHSARAVPFENIKKLFEYASEHKIPFHIHLEEQPKEIFDCQKFIGQKQGPSDLILSKMHLNEYFTAVHSTFTPANNMLLFSKLGANVSICPCTEGYLGDGIPRINESLKISFGTDCNNRICFLEEMRWACFSQQMLNNSRSVCGLSPEKLLLCATIDGARALSLTSKTGSLEVGKYFDAISFSLDSPLLENSLADTLIDSLVLSAGNREISNVFVSGVDRKTEGHHHHHH | not soluble |
| MSLIVLKFGGSSIKYDFEEATNLALSLFEDDAVIVVVSAIKGITDKLILYSQTLDKTIATKIASEYVSFAKSHGIDPVILKPYLDELFNLPDLPEEALRDYILSLGEVLSAVIFSASIGGKFVPSWDIFEAEGNFGNAFIDIKSSKKKFKRVFEVLEEGYIPVIPGFTAGKDGYILTLGRGGSDYSGVAAGVLGKAKLVAIMSDVEGIYTADPKLVPSARLIPYVSYDEIIISSKHGMRALQWKAAELAKEYKIPVLFGRTRNWRMGTLMSERSSGMPLMTYKDGLLLVNVTEEIKYPIIAEGPFWKLYKVSQEEGIHLMRELHTKLFQPSFIQYSVYKSSENGQKTQEFNEKISIEQGENRKIYYSEEEVNLPGEGHHHHHH | soluble |
| MSLIYAQILAGGKGTRMGNVSMPKQFLPLNGKPIIVHTVEKFILNTRFDKILISSPKEWMNHAEDNIKKYISDDRIVVIEGGEDRNETIMNGIRFVEKTYGLTDDDIIVTHDAVRPFLTHRIIEENIDAALETGAVDTVIEALDTIVESSNHEVITDIPVRDHMYQGQTPQSFNMKKVFNHYQNLTPEKKQILTDACKICLLAGDDVKLVKGEIFNIKITTPYDLKVANAIIQERIANEGHHHHHH | soluble |
| MSLIYLLNETPFEGVENLILNEIVFYDFSVDLSLYDALICTSKNALKALQHAKITLNFKLNLYAVGQSTAQYAKNLGFKKIKIPSKAYGKDLFLEFKEELKMQKCLYLRAKNIVSTLNLDLKNVGVDLDEMIVYENVFKKGDKKLIHPAIFIFTSPLSVENFLKFYSLKEEDKVVVIGQSTAKKLLNFKNLYICENQSLLNCVKLAKTLVEGHHHHHH | not soluble |
| MSLKAAQYAGNKSFNVVDGAKVPPAEGEVCLQVGYTGICGTDMHIYHGVMDQRVSIPQIIGHEMSGTVVEVGAGVTDYTVGDRVVVRPLDYCGDCPACNAGHSHVCHNLKFMGIDSPGAFQSYWTVKARTLHALPDNVSLKQGALIEPLSVACHDVARTRLQAGEKALVIGGGPIGQLVALVAKSVGAEVMISEVSEARLKFAAERGIKTVNPVTDDIEAVVKEWTGGKGADAVFEVSGVAAAVETMTKVAAVRGRICMVAIHSQKPQVDLFQFFWKELELLGARVYESADFEHAIELVASGKIDVDSFISSVTSLNDIGTAFASMDNNPAGMKALVECNEGHHHHHH | soluble |
| MSLKAIFITGAGSGMGREGATLFHANGWRVGAIDRNEDGLAALRVQLGAERLWARAVDVTDKAALEGALADFCAGNVGGGLDMMWNNAGIGEGGWFEDVPYEAAVRVVDVNFKAVLTGAYAALPYLKKAPGSLMFSTSSSSGTYGMPRIAVYSATKHAVKGLTEALSVEWQRHGVRVADVLPGLIDTAILTSTRQHSDEGPYTISAEQIRAAAPKKGMFRLMPSSSVAEAAWRAYQHPTRLHWYVPRSIRWIDRLKGVSPEFVRRHIAKSLATLEPKREGHHHHHH | soluble |
| MSLKALARFGKAFGGYKMIHVPQPICGPEDVVTEIKAAAICGADMKHYNVDSGSDEFNSIRGHEFAGCIAQVGEKVKDWKVGQRVVSDNSGHVCGVCPACEQGDFLCCTEKVNLGLDNNTWGGGFSKYCLVPGEILKIHRHALWEIPDGVDYEDAAVLDPICNAYKSIAQQSKFLPGQDVVVIGTGPLGLFSVQMARIMGAVNIVVVGLQEDVAVRFPVAKELGATAVVNGSTEDVVARCQQICGKDNLGLVIECSGANIALKQAIEMLRPNGEVVRVGMGFKPLDFSINDITAWNKSIIGHMAYDSTSWRNAIRLLASGAIKVKPMITHRIGLSQWREGFDAMVDKTAIKVIMTYDFDEGHHHHHH | not soluble |
| MSLKASLLQEQSLRLAMTQELRQAITMLQYNVQELSEFLYEQSLENPLIELGGFEREKKKSSNNSKSTSKQVENQMEIYSVDSTTIQQHLLNQIQYYKIEEEERKVASFIIMNMDGNGYLQETNEELANLLSAPLHVVDRSVELVQSLEPAGVGARNIQECLTLQLKRLQRRNGLAEEVVEDHFAYFVKKDWRKLVQVLKCSNEELQDAVNCITSLQPKPGLAFSSDKPLYIVPDMAVKKDGDRLVLQMNERNMPRIEIHSEYSALLNNSESEVASYVSEKYQHVQWIMRSLKQRKQTLLQVMTIIMEKQRDFFWKGPEYLKPLALKEVAEELSVHESTISRATRNKYVQTPHGLFEMKSFFSNAVSTTEDEAVSTKRVKQFIQTLVEAENKKKPLSDQKISKLLEEEHEIVISRRTVAKYREQMHIPASSLRKTIGEGHHHHHH | not soluble |
